B1: Apt1 (Aptamer_301794) (ssDNA)
DNA: AGGCCAACTGGATAGCGAATAGAACTCTGCCGTGGGGTGCAGTTTTAATTGTACGTTCTCGAATTCAGCACTACCTTTTGGCAAACGCTAATAAGGG
B2: Apt4 (Aptamer_423283) (ssDNA)
DNA: AGGCCAACTGGATAGCGAATGTTAGTGGACTCGGTTTGGACGTTCTCTCTTCTCGAATGCGAATTCAGCACTACCTTTTGGCAAACGCTAATAAGGG
B3: Apt2 (Aptamer_207452) (ssDNA)
DNA: AGGCCAACTGGATAGCGAATGTGGCAGTCGGTTTTGACTTGCGCTCTTGCATCATTATTCGAATTCAGCACTACCTTTTGGCAAACGCTAATAAGGG
B4: Apt5 (Aptamer_253457) (ssDNA)
DNA: AGGCCAACTGGATAGCGAATTTGCAATCAGCGTGGGTGGGTTTCTTTTGCGTGGTGTGTCGAATTCAGCACTACCTTTTGGCAAACGCTAATAAGGG

Molecular target: Staphylococcal enterotoxin A (SEA) (UniProt P0A0L2 25-257)
Sequence (P0A0L2 25-257): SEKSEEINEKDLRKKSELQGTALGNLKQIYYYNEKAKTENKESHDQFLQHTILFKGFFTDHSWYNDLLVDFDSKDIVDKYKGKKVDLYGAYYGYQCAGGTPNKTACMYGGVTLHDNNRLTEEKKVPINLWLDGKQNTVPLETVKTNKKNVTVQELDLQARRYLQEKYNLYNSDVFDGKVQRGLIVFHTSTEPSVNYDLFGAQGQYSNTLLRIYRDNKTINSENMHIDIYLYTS
Assay: […], Tris-HCl pH 7.4, 2.7 mM KCl, 1 mM CaCl2, 0.5 mM MgCl2; 30 min at 25 °C in 100 µL, […]
Details: protein: commercial; tags: biotinylated, immobilized on streptavidin magnetic beads

Binder | binding result | Kd [nM]
B1 | binds | 
B2 | binds | 
B3 | binds | 
B4 |  | 13.4 ± 1.86

Source: article PMC11102521
